Source: patent publication EP4692114A1, “CALCITONIN ANALOGUE, AND DERIVATIVE THEREOF AND USE THEREOF” (Hangzhou Sciwind Biosciences Co., Ltd., priority 2023, dated 2024)
*1 amine or outer side, *2 acyl side, *3 side chain or, on linkers, in order; H or OH if unused. Where a SMILES comes first, the peptide text is derived from it. Primed or numbered codes have the meaning given here. The star is where a group is joined. C22 diacid = O=C(O)CCCCCCCCCCCCCCCCCCCCC(=O)*; C20 diacid = O=C(O)CCCCCCCCCCCCCCCCCCC(=O)*; C18 diacid = O=C(O)CCCCCCCCCCCCCCCCC(=O)*; γGlu = O=C(O)[C@H](CCC(=O)[*:2])N[*:1]; Inp′ = not defined here; Trx′ = not defined here; Inp = O=C(O)C1CCNCC1

T1: human amylin receptor (AMY3) on CHO-K1/Gal5/AMY3 cells (human, UniProt P30988 25-474; O60896 24-148)
T1 sequence (looked up) 1: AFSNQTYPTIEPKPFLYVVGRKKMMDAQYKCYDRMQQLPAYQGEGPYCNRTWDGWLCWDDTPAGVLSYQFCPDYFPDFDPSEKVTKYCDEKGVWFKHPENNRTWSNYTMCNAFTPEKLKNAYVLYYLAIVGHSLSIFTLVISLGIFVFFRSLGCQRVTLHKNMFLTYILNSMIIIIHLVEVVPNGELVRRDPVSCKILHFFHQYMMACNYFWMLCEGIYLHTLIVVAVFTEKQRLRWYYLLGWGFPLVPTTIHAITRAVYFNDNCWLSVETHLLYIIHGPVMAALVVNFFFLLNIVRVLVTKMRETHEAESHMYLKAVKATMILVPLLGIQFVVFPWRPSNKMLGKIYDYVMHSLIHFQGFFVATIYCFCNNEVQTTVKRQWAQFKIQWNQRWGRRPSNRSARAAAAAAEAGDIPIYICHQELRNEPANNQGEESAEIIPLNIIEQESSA
T1 sequence (looked up) 2: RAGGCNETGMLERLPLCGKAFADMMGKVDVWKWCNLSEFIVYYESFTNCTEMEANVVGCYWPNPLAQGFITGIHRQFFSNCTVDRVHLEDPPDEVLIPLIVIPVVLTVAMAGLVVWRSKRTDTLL


Key:
[1] = Heat accelerated stability assay under a neutral condition; type: physicochemical; details: pH about 7.4, 40°C
Protocol: The lyophilized powder (1 mg/mL) of calcitonin analogues or derivatives prepared in accordance with the method of Example 1 were mixed with sodium dihydrogen phosphate (1.42 mg/mL) and dissolved in ultrapure water in the indicated mass-volume ratios. After adjusting pH to about 7.4 with hydrochloric acid/sodium hydroxide, the solution was filtered into a sterilized vial in a clean bench using a 0.22 µm sterile filter. The vial was then capped and placed into the stability test chamber at 40°C. Detections were made on Days 7 (7d) and 26 (26d), and during the assay, changes in the characteristics and properties of the polypeptides were observed and recorded. The sample was then centrifuged for 3 min at 10000 rpm at 4°C, and the supernatant was transferred to a liquid phase sample vial for detecting the concentration and purity of the polypeptides using liquid phase chromatography described as below, wherein the concentration of the polypeptide = peak area/injection volume/extinction coefficient/60×flow rate, and the purity of the polypeptide = target peak area/total peak area× 100%.
Conditions of the reversed phase chromatography Flow rate: 1.0 ml/min; Autosampler temperature: 15°C; Column temperature: 25°C; Detection wavelengths: 280 nm and 214 nm; Mobile phase A: 100% H2O+0.05% TFA; Mobile phase B: 100% ACN; and Gradient of elution listed in Table 4: Table 4. Listing of the gradient of elution in the liquid phase chromatography
Results were shown below in Tables 5, 6, and 7. A difference of more than 5% in content as compared with the initial value was typically assumed (for example, as prescribed by the Chinese Pharmacopeia (2020 Edition)) to be a significant change. Within a reasonable margin of error, a decrease of less than 1% from the initial value to the detected content is denoted as "no change" below. Table 5. Changes in characteristics or properties in the heat accelerated stability assay

[2] = molecular target: T1, human amylin receptor (AMY3) on …; experiment: cell-based or functional assay

| Molecule | EC50/nM, CRE-luciferase in amylin receptor/CRE-luc CHO cells [2] [nM] | further results |
| --- | --- | --- |
| CC(C)C[C@H](NC(=O)[C@H](CCCNC(=N)N)NC(=O)CNC(=O)[C@H](CC(C)C)NC(=O)[C@@H](NC(=O)[C@H](C)NC(=O)[C@@H](NC(=O)[C@H](CO)NC(=O)[C@H](CC(C)C)NC(=O)[C@H](CCC(N)=O)NC(=O)[C@H](CO)NC(=O)[C@H](C)NC(=O)C1CCN(C(=O)CCCCCCCCCCCCCCCCC(=O)O)CC1)[C@@H](C)O)C(C)C)C(=O)N[C@@H](CO)C(=O)N[C@@H](CC(=O)O)C(=O)N[C@@H](CCC(=O)O)C(=O)N[C@@H](CC(C)C)C(=O)N[C@@H](Cc1c[nH]cn1)C(=O)N[C@@H](CCCNC(=N)N)C(=O)N[C@@H](CC(C)C)C(=O)N[C@@H](CCC(N)=O)C(=O)N[C@@H](CC(=O)O)C(=O)N[C@@H](Cc1ccc(O)cc1)C(=O)N1CCC[C@H]1C(=O)N[C@@H](CCCNC(=N)N)C(=O)N[C@H](C(=O)N[C@@H](CC(=O)O)C(=O)N[C@H](C(=O)NCC(=O)N[C@@H](CO)C(=O)NCC(=O)N[C@@H](CO)C(=O)N1CCC[C@H]1C(N)=O)C(C)C)[C@@H](C)O [M48] ({C18 diacid-Inp}-ASQLSTAVLGRLSDELHRLQDYPRTDVGSGSP-NH2) |  | Changes in characteristics or properties, 0d ([1]; 1 mg/mL, phosphate, 0d): Clear; Changes in characteristics or properties, 7d ([1]; 1 mg/mL, phosphate, 7d): Clear; Concentration change (7d-0d)/% ([1]; Day 7 vs Day 0, reversed phase chromatography): -1.678%; Purity Change% (7d-0d) ([1]; purity from reversed phase chromatography-214 nm, Day 7 vs Day 0): -1%; Purity Change% (26d-0d) ([1]; purity from reversed phase chromatography-214 nm, Day 26 vs Day 0): -3.9% |
| {C22 diacid-γGlu}-ASQLSTAVLGRLSDELHRLQDYPRTDVGSGSP-NH2 (SMILES CC(C)C[C@H](NC(=O)[C@H](CCCNC(=N)N)NC(=O)CNC(=O)[C@H](CC(C)C)NC(=O)[C@@H](NC(=O)[C@H](C)NC(=O)[C@@H](NC(=O)[C@H](CO)NC(=O)[C@H](CC(C)C)NC(=O)[C@H](CCC(N)=O)NC(=O)[C@H](CO)NC(=O)[C@H](C)NC(=O)CC[C@H](NC(=O)CCCCCCCCCCCCCCCCCCCCC(=O)O)C(=O)O)[C@@H](C)O)C(C)C)C(=O)N[C@@H](CO)C(=O)N[C@@H](CC(=O)O)C(=O)N[C@@H](CCC(=O)O)C(=O)N[C@@H](CC(C)C)C(=O)N[C@@H](Cc1c[nH]cn1)C(=O)N[C@@H](CCCNC(=N)N)C(=O)N[C@@H](CC(C)C)C(=O)N[C@@H](CCC(N)=O)C(=O)N[C@@H](CC(=O)O)C(=O)N[C@@H](Cc1ccc(O)cc1)C(=O)N1CCC[C@H]1C(=O)N[C@@H](CCCNC(=N)N)C(=O)N[C@H](C(=O)N[C@@H](CC(=O)O)C(=O)N[C@H](C(=O)NCC(=O)N[C@@H](CO)C(=O)NCC(=O)N[C@@H](CO)C(=O)N1CCC[C@H]1C(N)=O)C(C)C)[C@@H](C)O) [calcitonin derivative M38] | 0.022 |  |
| {C20 diacid-γGlu}-ASQLSTAVLGRLSQELHRLQDYPRTDVGSESP-NH2 (SMILES CC(C)C[C@H](NC(=O)[C@H](CCCNC(=N)N)NC(=O)CNC(=O)[C@H](CC(C)C)NC(=O)[C@@H](NC(=O)[C@H](C)NC(=O)[C@@H](NC(=O)[C@H](CO)NC(=O)[C@H](CC(C)C)NC(=O)[C@H](CCC(N)=O)NC(=O)[C@H](CO)NC(=O)[C@H](C)NC(=O)CC[C@H](NC(=O)CCCCCCCCCCCCCCCCCCC(=O)O)C(=O)O)[C@@H](C)O)C(C)C)C(=O)N[C@@H](CO)C(=O)N[C@@H](CCC(N)=O)C(=O)N[C@@H](CCC(=O)O)C(=O)N[C@@H](CC(C)C)C(=O)N[C@@H](Cc1c[nH]cn1)C(=O)N[C@@H](CCCNC(=N)N)C(=O)N[C@@H](CC(C)C)C(=O)N[C@@H](CCC(N)=O)C(=O)N[C@@H](CC(=O)O)C(=O)N[C@@H](Cc1ccc(O)cc1)C(=O)N1CCC[C@H]1C(=O)N[C@@H](CCCNC(=N)N)C(=O)N[C@H](C(=O)N[C@@H](CC(=O)O)C(=O)N[C@H](C(=O)NCC(=O)N[C@@H](CO)C(=O)N[C@@H](CCC(=O)O)C(=O)N[C@@H](CO)C(=O)N1CCC[C@H]1C(N)=O)C(C)C)[C@@H](C)O) [calcitonin derivative M21] | 0.017 |  |
| {C20 diacid-γGlu}-ASQLSTAVLGRLSQELHRLQDYPRTDVGSGSP-NH2 (SMILES CC(C)C[C@H](NC(=O)[C@H](CCCNC(=N)N)NC(=O)CNC(=O)[C@H](CC(C)C)NC(=O)[C@@H](NC(=O)[C@H](C)NC(=O)[C@@H](NC(=O)[C@H](CO)NC(=O)[C@H](CC(C)C)NC(=O)[C@H](CCC(N)=O)NC(=O)[C@H](CO)NC(=O)[C@H](C)NC(=O)CC[C@H](NC(=O)CCCCCCCCCCCCCCCCCCC(=O)O)C(=O)O)[C@@H](C)O)C(C)C)C(=O)N[C@@H](CO)C(=O)N[C@@H](CCC(N)=O)C(=O)N[C@@H](CCC(=O)O)C(=O)N[C@@H](CC(C)C)C(=O)N[C@@H](Cc1c[nH]cn1)C(=O)N[C@@H](CCCNC(=N)N)C(=O)N[C@@H](CC(C)C)C(=O)N[C@@H](CCC(N)=O)C(=O)N[C@@H](CC(=O)O)C(=O)N[C@@H](Cc1ccc(O)cc1)C(=O)N1CCC[C@H]1C(=O)N[C@@H](CCCNC(=N)N)C(=O)N[C@H](C(=O)N[C@@H](CC(=O)O)C(=O)N[C@H](C(=O)NCC(=O)N[C@@H](CO)C(=O)NCC(=O)N[C@@H](CO)C(=O)N1CCC[C@H]1C(N)=O)C(C)C)[C@@H](C)O) [calcitonin derivative M6] | 0.017 |  |
| {C20 diacid-Trx′}-ASQLSTAVLGRLSEELHRLQDYPRTDVGSGSP-NH2 (reading uncertain) [calcitonin derivative M55] | 0.017 |  |
| {C20 diacid-γGlu}-ASQLSTAVLGRLSDELHRLQDYPRTDVGSGSP-NH2 (SMILES CC(C)C[C@H](NC(=O)[C@H](CCCNC(=N)N)NC(=O)CNC(=O)[C@H](CC(C)C)NC(=O)[C@@H](NC(=O)[C@H](C)NC(=O)[C@@H](NC(=O)[C@H](CO)NC(=O)[C@H](CC(C)C)NC(=O)[C@H](CCC(N)=O)NC(=O)[C@H](CO)NC(=O)[C@H](C)NC(=O)CC[C@H](NC(=O)CCCCCCCCCCCCCCCCCCC(=O)O)C(=O)O)[C@@H](C)O)C(C)C)C(=O)N[C@@H](CO)C(=O)N[C@@H](CC(=O)O)C(=O)N[C@@H](CCC(=O)O)C(=O)N[C@@H](CC(C)C)C(=O)N[C@@H](Cc1c[nH]cn1)C(=O)N[C@@H](CCCNC(=N)N)C(=O)N[C@@H](CC(C)C)C(=O)N[C@@H](CCC(N)=O)C(=O)N[C@@H](CC(=O)O)C(=O)N[C@@H](Cc1ccc(O)cc1)C(=O)N1CCC[C@H]1C(=O)N[C@@H](CCCNC(=N)N)C(=O)N[C@H](C(=O)N[C@@H](CC(=O)O)C(=O)N[C@H](C(=O)NCC(=O)N[C@@H](CO)C(=O)NCC(=O)N[C@@H](CO)C(=O)N1CCC[C@H]1C(N)=O)C(C)C)[C@@H](C)O) [calcitonin derivative M8] | 0.017 |  |
| {C18 diacid-γGlu}-ASQLSTAVLGRLSDELHRLQDYPRTDVGSGSP-NH2 (SMILES CC(C)C[C@H](NC(=O)[C@H](CCCNC(=N)N)NC(=O)CNC(=O)[C@H](CC(C)C)NC(=O)[C@@H](NC(=O)[C@H](C)NC(=O)[C@@H](NC(=O)[C@H](CO)NC(=O)[C@H](CC(C)C)NC(=O)[C@H](CCC(N)=O)NC(=O)[C@H](CO)NC(=O)[C@H](C)NC(=O)CC[C@H](NC(=O)CCCCCCCCCCCCCCCCC(=O)O)C(=O)O)[C@@H](C)O)C(C)C)C(=O)N[C@@H](CO)C(=O)N[C@@H](CC(=O)O)C(=O)N[C@@H](CCC(=O)O)C(=O)N[C@@H](CC(C)C)C(=O)N[C@@H](Cc1c[nH]cn1)C(=O)N[C@@H](CCCNC(=N)N)C(=O)N[C@@H](CC(C)C)C(=O)N[C@@H](CCC(N)=O)C(=O)N[C@@H](CC(=O)O)C(=O)N[C@@H](Cc1ccc(O)cc1)C(=O)N1CCC[C@H]1C(=O)N[C@@H](CCCNC(=N)N)C(=O)N[C@H](C(=O)N[C@@H](CC(=O)O)C(=O)N[C@H](C(=O)NCC(=O)N[C@@H](CO)C(=O)NCC(=O)N[C@@H](CO)C(=O)N1CCC[C@H]1C(N)=O)C(C)C)[C@@H](C)O) [calcitonin derivative M39] | 0.016 |  |
| {C20 diacid-Inp′}-ASQLSTAVLGRLSEELHRLQDYPRTDVGSGSP-NH2 [calcitonin derivative M56] | 0.017 |  |
